Biological target: the molecule itself
Assay: crystal structure

B1: GLR3.4-S1S2 (isolated ligand-binding domain of GLR3.4) (domain or fragment, Arabidopsis thaliana)
chain: KPLRIGVPNRVSYTDYVSKDKNPPGVRGYCIDVFEAAIELLPYPVPRTYILYGDGKRNPSYDNLVNEVVADNFDVAVGDITIVTNRTRYVDFTQPFIESGLVVVAPVKEAGTIEGIDSLVTSNEPIGVQDGTFARNYLINELNILPSRIVPLKDEEQYLSALQRGPNAGGVAAIVDELPYIEVLLTNSNCKFRTVGQEFTRTGWGFAFQRDSPLAVDMSTAILQLSEEGELEKIHRKWLNYKHECS
- stoichiometry N: 2

— publication PMC8349882 (Molecular cell, 2021)
